This passage reports self-cleavage results from the RNAGym collection of RNA variant scans (doi:10.7554/elife.80360).

The chains are these.
B1: Hammerhead Ribozyme (parent)
chain: ACCGGAUGUGCUUUCCGGUCUGAUGAGUCCGUGAGGACGAAACAG

The variants in the data set derive from B1. Kind of data set: self-cleavage, relative activity (ratio to wild type); higher = more cleavage; co-transcriptional.
As to A6C U9C, the self-cleavage is 0.486.
The result for G8U G35U reads 0.616.
G25C C43G: the self-cleavage was 0.235.
Consider A1U U28G, for which the self-cleavage was determined as 0.436.
Turning to U14A C29G, the self-cleavage was 0.562.
Next, U7C C11A: 1.37; U7C C11G: 1.37; C20U G39U: 0.335.
As to G17C C29A, the self-cleavage was 0.419.
Consider G4U G45A, for which the self-cleavage turned out to be 0.351.
Consider C3A G27U, for which the self-cleavage worked out at 0.305.
The result for G10A A44U reads 0.741; that for G5A U32A, 1.32; that for G35C C38U, 0.67.
Next, G4U A34U: 0.43.
Next, C2A G10C: 0.662.
G10C U14A: the self-cleavage came out at 0.796.
As for G10C U14C, the self-cleavage was 1.28.
The result for G10A G17U reads 0.986; that for G10C G18A, 1.06; that for G10C G18U, 0.746.
Next, A6G G18C: 0.351; G25U G39A: 0.318; C3U A44U: 0.592.
With U7A C15G, the self-cleavage was 0.987.
With G27C C29G, the self-cleavage stood at 0.279.
For G4U U7C, the self-cleavage came out at 0.361.
For U14A U21G, the self-cleavage came to 0.595.
G5C U12G: the self-cleavage worked out at 0.773.
The result for A6C A42U reads 0.295.
Next, U21C A40C: 0.393; C16G G35U: 0.472.
The result for G22C A40G reads 0.351; that for U28A C38U, 0.703; that for C11U G31U, 1.35.
Consider C16A C30G, for which the self-cleavage was determined as 0.591.
On to G17U U21G, for which the self-cleavage worked out at 0.387.
The result for U19G G25U reads 0.37; that for C15U A37U, 0.953.
For the variant A26U A42U, the self-cleavage worked out at 0.261.
Turning to U7G G8U, the self-cleavage was 1.36.
The result for C3U C38G reads 0.745.
In the case of U14C A34C, the self-cleavage is 0.791.
The result for C16A C20G reads 0.316.
On to A26C A44C, for which the self-cleavage came to 0.406.
Take G35C A37G: the self-cleavage was determined as 0.563.
Regarding A23U G35U, the self-cleavage came out at 0.37.
In the case of G4C A40C, the self-cleavage amounted to 0.352.
The result for A6C G17U reads 0.37.
The result for G4C A37C reads 0.328.
The result for A1C G39A reads 0.438; that for U13G A40U, 0.303; that for C16G A26U, 0.433.
For C11G U21A, the self-cleavage was 0.735.
As to U19G G45A, the self-cleavage was 0.424.
A42G G45C: the self-cleavage was 0.31.
The result for U7G G36U reads 0.735; that for U14C C30U, 0.613.
Consider G33C G36A, for which the self-cleavage is 0.491.
For the variant C11A U28C, the self-cleavage amounted to 1.1.
Next, U12G A40C: 0.366; U13C A41G: 0.394.
The result for U21C C43G reads 0.415; that for C20U A40G, 0.41; that for C11U U28A, 0.768.
In the case of G36C G39U, the self-cleavage worked out at 0.325.
Turning to U32C A42U, the self-cleavage worked out at 0.366.
Next, A6U C20U: 0.454.
For the variant C16A U21C, the self-cleavage worked out at 0.276.
On to A1C C2U, for which the self-cleavage was determined as 2.17.
Next, A23C G36U: 0.335; G5C G39U: 0.251.
Take G5C G39A: the self-cleavage worked out at 0.252.
As for U28G G45A, the self-cleavage came to 0.418.
Consider U9G G39U, for which the self-cleavage came out at 0.319.
Take U32A C43A: the self-cleavage is 0.347.
Regarding G10U A42U, the self-cleavage amounted to 0.304.
For the variant A6G G36U, the self-cleavage amounted to 0.314.
Next, A34U G39A: 0.288; G8A A34U: 0.89; U7C U12C: 1.09.
G33U A37C: the self-cleavage was determined as 1.04.
Regarding U13C C29G, the self-cleavage was 0.723.
Next, A23G G27U: 0.282; G4U A44G: 0.789.
Regarding G4A U7G, the self-cleavage was 0.335.
Next, U12A C30A: 1.08.
For the variant G25A A26C, the self-cleavage is 0.339.
Next, C30G A42C: 0.306.
For C30G A37C, the self-cleavage was 0.337.
As to A40G A44C, the self-cleavage came to 0.304.
Consider G5U A44G, for which the self-cleavage is 0.918.
Take C3G A23G: the self-cleavage turned out to be 0.257.
The result for G22A G25A reads 0.377.
Next, U19C C30A: 0.416; U19C C30U: 0.878.
Next, A1G A6C: 0.838; C29G G36A: 0.66; U19A U21C: 0.248.
G22U A44U: the self-cleavage amounted to 0.335.
The result for C2G U28G reads 0.315.
Next, G4C G27A: 0.476; G25A G27A: 0.306.
Next, G17A G25C: 0.321; C16U G35A: 0.911; G25A C30A: 0.369.
Regarding G17A A41G, the self-cleavage stood at 0.332.
For G10U G35C, the self-cleavage stood at 0.685.
Next, G4U U32G: 0.316.
Turning to U21C C29U, the self-cleavage worked out at 0.84.
The result for A1U G22A reads 0.372.
Next, A26C A41C: 0.369.
For the variant U13G G17A, the self-cleavage was 0.876.
The result for C16U U21A reads 0.698; that for U14C U24G, 0.816.
Next, U7G A44C: 0.411; G33A A41U: 0.428.
For U24A C29G, the self-cleavage was determined as 0.79.
Consider C30A G45A, for which the self-cleavage is 0.575.
The result for G36U G39U reads 0.333.
The result for G31C C43U reads 0.436; that for C15G G25C, 0.262.
Next, C3U A6U: 0.609.
As to G5U A40U, the self-cleavage was 0.319.
Consider G36U A42G, for which the self-cleavage stood at 0.316.
Consider G36U A42C, for which the self-cleavage is 0.37.
The result for A23C C43G reads 0.274; that for A23G G33U, 0.458.
The result for G22C A44U reads 0.323; that for G39C A40U, 0.296.
Next, G22U A37U: 0.296.
Regarding A6C G33A, the self-cleavage stood at 0.689.
The result for U13G G25A reads 0.367; that for U13A G18A, 1.17; that for U7G C43U, 0.389.
Next, G31C A40C: 0.564; U7G U13C: 1.45.
In the case of C2A C43A, the self-cleavage was determined as 0.333.
For the variant C11U G33C, the self-cleavage is 0.659.
In the case of C16A A23C, the self-cleavage came out at 0.32.
Next, C30A A40G: 0.414.
U9A A40C: the self-cleavage was 0.49.
As for U24C A37C, the self-cleavage worked out at 1.02.
C30U G31C: the self-cleavage turned out to be 1.11.
In the case of C11A A37C, the self-cleavage stood at 1.12.
C11A A37U: the self-cleavage came out at 0.633.
The result for G22U G31A reads 0.397; that for U21G G25U, 0.373.
For the variant U14G C20U, the self-cleavage amounted to 0.393.
The result for U19C G45A reads 0.384; that for G4C G36C, 0.247; that for G4A A40U, 0.325.
Turning to A1G G25C, the self-cleavage came to 0.319.
As to A1C G8A, the self-cleavage worked out at 0.409.
The result for U12G U24A reads 1.13; that for A26C C30U, 0.753.
On to U13G U19A, for which the self-cleavage came to 0.301.
Next, C15U C38G: 0.689; G4A U21G: 0.374.
Consider C2U G36U, for which the self-cleavage was 0.488.
Regarding G8A C29G, the self-cleavage came to 0.667.
The result for G8C A41G reads 0.298.
As to G17U A23C, the self-cleavage turned out to be 0.32.
The result for A34C G39U reads 0.404; that for U9C A26U, 0.671; that for U24A A34C, 0.88.
The result for U24A A34G reads 0.777.
